According to patent US20220363718A1:
*1 amine or outer side, *2 acyl side, *3 side chain or, on linkers, in order; H or OH if unused. Bridges are numbered along the chain shown (N, C = ends). [ ]: non-standard residue; d: D form. TATA = O=C(CC[*:1])N1CN(C(=O)CC[*:2])CN(C(=O)CC[*:3])C1; Trp(1-Me) = Cn1cc(C[C@H](N)C(=O)O)c2ccccc21; Arg(Me2a) = CN(C)C(=N)NCCC[C@H](N)C(=O)O; Phe(4-F) = N[C@@H](Cc1ccc(F)cc1)C(=O)O; tBuAla = CC(C)(C)C[C@H](N)C(=O)O; NMeD = CN[C@@H](CC(=O)O)C(=O)O; NMeA = CN[C@@H](C)C(=O)O

Biological target: Biotinylated human TSLP (human)
Sequence (chain, as listed by the source limits assumed): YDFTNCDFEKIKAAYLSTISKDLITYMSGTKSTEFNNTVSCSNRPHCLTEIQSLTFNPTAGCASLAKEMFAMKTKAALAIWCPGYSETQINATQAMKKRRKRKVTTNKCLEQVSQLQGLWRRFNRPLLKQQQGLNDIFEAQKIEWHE
Assay: SPR, biotinylated hTSLP on streptavidin chip

Row | Kd [nM] | Binder
1 | 2.7 | Ac-C[NMeA][Trp(1-Me)][tBuAla]Q[NMeD]C[Trp(1-Me)][Arg(Me2a)]G[Phe(4-F)]C-NH2 (linker 1-7-12 via TATA) [Example 5]
2 | 6 | CQXLEDCXXGXC (not fully specified; N-term acetyl; CQ[TrpMe]LEDC[TrpMe][ADMA]G[4-FPhe]C as printed; 3 Cys on TATA) [Example 13]
